Measured values taken from US20250312467A1.

Biological target: Her2 (UniProt P04626)
Assay: cell-based or functional assay

With “antibody-payload conjugate (ADC, trastuzumab-DM1 conjugate)” the IC50, in vitro cytotoxicity on BT474 cells was 0.0296 µg/mL and the IC50, in vitro cytotoxicity on NCI-N87 cells was 0.0821 µg/mL.
